# Patent publication US20100028924A1, “Method Of Diagnosing Pon1-Hdl Associated Lipid Disorders” (Rappaport Family Institute Research in the Medical Sciences, priority 2006, published 2010)
# Residue numbers refer to the chain shown, from its start.
# B1: wt Δ20-rePON1-192K: truncated rePON1 variant lacking the first 20 amino acids of the hydrophobic N-terminus, 192K (protein)
# chain: MAKSSFQTRFNVHREVTPVELPNCNLVKGVDNGSEDLEILPNGLAFISSGLKYPGIMSFDPDKSGKILLMDLNEEDPVVLELGITGNTLDISSFNPHGISTFTDEDNTVYLLVVNHPDSSSTVEVFKFQEEEKSLLHLKTIRHKLLPSVNDIVAVGPEHFYATNDHYFADPYLKSWEMHLGLAWSFVTYYSPNDVRVVAEGFDFANGINISPDGKYVYIAELLAHKIHVYEKHANWTLTPLKSLDFDTLVDNISVDPVTGDLWVGCHPNGMRIFYYDPKNPPGSEVLRIQDILSEEPKVTVVYAENGTVLQGSTVAAVYKGKLLIGTVFHKALYCEL
# modifications: Delta20-rePON1-192K isozyme
# notes: truncated rePON1 variant lacking the first 20 amino acids of the hydrophobic N-terminus, 192K
# B2: Δ20-rePON1-192R: truncated rePON1 variant lacking the first 20 N-terminal amino acids, 192R isozyme (protein)
# chain: B1 chain with K174R
# modifications: Delta20-rePON1-192R isozyme
# notes: truncated rePON1 variant lacking the first 20 N-terminal amino acids, 192R isozyme
# B3: Δ20-rePON1-192Q: truncated rePON1 variant lacking the first 20 N-terminal amino acids, 192Q isozyme (protein)
# chain: B1 chain with K174Q
# modifications: Delta20-rePON1-192Q isozyme
# notes: truncated rePON1 variant lacking the first 20 N-terminal amino acids, 192Q isozyme
# B4: rePON1-192Q: recombinant PON1 with glutamine at position 192, generated to mimic the human Q isozyme (protein)
# chain: MAKLTALTLLGLGLALFDGQKSSFQTRFNVHREVTPVELPNCNLVKGVDNGSEDLEILPNGLAFISSGLKYPGIMSFDPDKSGKILLMDLNEEDPVVLELGITGNTLDISSFNPHGISTFTDEDNTVYLLVVNHPDSSSTVEVFKFQEEEKSLLHLKTIRHKLLPSVNDIVAVGPEHFYATNDHYFADPYLQSWEMHLGLAWSFVTYYSPNDVRVVAEGFDFANGINISPDGKYVYIAELLAHKIHVYEKHANWTLTPLKSLDFDTLVDNISVDPVTGDLWVGCHPNGMRIFYYDPKNPPGSEVLRIQDILSEEPKVTVVYAENGTVLQGSTVAAVYKGKLLIGTVFHKALYCEL
# modifications: rePON1-192Q isozyme
# notes: recombinant PON1 with glutamine at position 192, generated to mimic the human Q isozyme
# B5: rePON1-192R: recombinant PON1 with arginine at position 192, generated to mimic the human R isozyme (protein)
# chain: B4 chain with Q192R
# modifications: rePON1-192R isozyme
# notes: recombinant PON1 with arginine at position 192, generated to mimic the human R isozyme
# How the values were obtained:
# apoA-I rHDL [1] = test: Surface plasmon resonance binding of Δ20-rePON1 192 isozymes to immobilized rHDL-apoA-I; conditions: for Kd / koff / kon: SPR, 25° C., biotinylated rHDL-apoA-I on streptavidin chip
# Protocol: FIGS. 2A-C are sensorgrams for the binding of wt Δ20-rePON1-192K—SEQ ID NO:8 (FIG. 2A), Δ20-rePON1-192R—SEQ ID NO:10 (FIG. 2B) and Δ20-rePON1-192Q—SEQ ID NO:12 (FIG. 2C) isozymes to rHDL-apoA-I. Biotinylated rHDL-apoA-I particles were immobilized onto the streptavidin surface (SA chip), and a series of PON1 concentrations were injected over the immobilized and blank surfaces to obtain the net binding response. Binding was performed at 25° C. Association and dissociation phases were fitted to a single exponential, from which kinetic rate constants were derived. PON1 concentrations in all the sensorgrams are (from bottom to top) 25, 40, 60, 80, 100, 150 and 200 nM;
# Surface plasmon resonance (SPR) measurements: rHDL-apoA-I particles containing 0.7% of N-biotinyl-dipalmitoylphosphatidylethanolamine (N-biotynyl-DPPE; Avanti Polar Lipids) were prepared and purified as described [Gaidukov, L. and D. S. Tawfik, Biochemistry, 2005. 44(35): p. 11843-54]. SPR was performed on BIAcore 3000 (Uppsala, Sweden) as described [Gaidukov, L. and D. S. Tawfik, Biochemistry, 2005. 44(35): p. 11843-54]. Briefly, the biotinylated rHDL particles were adsorbed on streptavidin (SA5) chip, and Δ20-rePON1 isozymes were injected over the immobilized and blank surfaces to obtain the net binding response. Binding rate constants were obtained by fitting of association and dissociation phases to single exponentials as described [Gaidukov, L. and D. S. Tawfik, Biochemistry, 2005. 44(35): p. 11843-54].
# The above results were further supported by affinity measurements using surface plasmon resonance. It was previously shown that HDL affinity of the intact rePON1 is very high (sub-nanomolar) and could not be determined accurately using surface plasmon resonance [Gaidukov, L., and Tawfik, D. S. (2005)Biochemistry 44, 11843-11854]. In contrast, binding affinity of the truncated variant lacking the first 20 amino acids of the hydrophobic N-terminus (Δ20-rePON1) could be amply determined. Therefore, the truncated variants of PON1 192 isozymes were prepared and their HDL binding affinities measured. Typical binding sensorgrams between Δ20-rePON1 isozymes and the immobilized HDL particles are portrayed in FIGS. 2A-C, and the derived rate and affinity constants are summarized in Table 2 herein below.
# apoA-I rHDL [2] = test: Inactivation kinetics of rePON1 192 isozymes bound to rHDL-apoA-I (EDTA/β-mercaptoethanol, residual phenyl acetate hydrolysis); type: biochemical; conditions: for A2 (amplitude) (%): as printed in Table 2 beside the SPR constants of the Δ20 variants; for A2 (%) (amplitude of second, slow inactivation phase = HDL-bound fraction) / k1^inactiv (first, fast phase) / k2^inactiv (second, slow phase): apoA-I rHDL, 50-fold molar excess, EDTA and β-mercaptoethanol, 37° C.
# Protocol: (§1) FIG. 1 is a graph showing the inactivation kinetics of the wild-type rePON1-192K (SEQ ID NO:2), -192R (SEQ ID NO:4) and -192Q (SEQ ID NO:6) isozymes, bound to rHDL-apoA-I, or in buffer. Delipidated enzymes were incubated with a 50-fold excess of rHDL-apoA-I, or in activity buffer, and subjected to inactivation in the presence of EDTA (5 mM) and β-mercaptoethanol (10 mM) at 37° C. Residual activity at various time points was determined by initial rates of phenyl acetate hydrolysis (2 mM) and plotted as percent of the activity at time zero. Data were fitted to a single exponential for wild-type rePON1-192K on rHDL-apoA-I, and to double-exponentials for the remaining samples. The inactivation rate constants and amplitudes were derived from this fit;
# (§2) Inactivation rates of rePON1s were measured as described [Gaidukov, L. and D. S. Tawfik, Biochemistry, 2005. 44(35): p. 11843-54]. Briefly, rePON1 samples were delipidated using Bio-Beads SM-2 (BioRad) and incubated in buffer, or with 50-fold molar excess of rHDL-apoA-I. EDTA (10 mM) and β-mercaptoethanol (20 mM) were added, and samples were incubated at 37° C. Residual activity at different time points was determined with 2 mM phenyl acetate, and inactivation rates were fitted to either mono- or double-exponentials [Gaidukov, L. and D. S. Tawfik, Biochemistry, 2005. 44(35): p. 11843-54].
# (§3) The resultant inactivation profiles of wt rePON1 (SEQ ID NO: 2), rePON1-192Q (SEQ ID NO: 6) and rePON1-192R (SEQ ID NO: 4), were fitted to exponential curves as illustrated in FIG. 1.
# [3] = Inactivation kinetics of rePON1 192 isozymes in activity buffer; type: biochemical; conditions: EDTA and β-mercaptoethanol, 37° C.
# Protocol: as §1, §2, §3
# apoA-I rHDL [4] = test: Stimulation of enzymatic activity of rePON1 192 isozymes by rHDL-apoA-I; type: biochemical; conditions: for reduction of Vmax compared to wt rePON1-192K: all the substrates tested; for Vmax (%) activation factor: relative to delipidated enzyme (100%)
# From the text: The activity is presented in relation to the initial activity of the delipidated enzymes (percentage of stimulation). Data were fitted to the Langmuir saturation curve, from which the activation factor (Vmax) and the apparent affinity (Kapp) were derived;
# Stimulated activity is presented as the percentage of the initial activity of the delipidated enzymes (corresponds to 100%). Data were fitted to the Langmuir saturation curve, from which the activation factor (Vmax) and the apparent affinity (Kapp) were derived;
# Delipidated rePONs at 0.2 μM were incubated with a range of rHDL concentrations (0.1-10 μM) for 3 hrs at 37° C. Enzymatic activity was determined in activity buffer (50 mM Tris pH 8.0, 1 mM CaCl2) with substrates at 1 mM concentrations as described [Gaidukov, L. and D. S. Tawfik, Biochemistry, 2005. 44(35): p. 11843-54]. 5-(thiobutyl)-butyrolactone (TBBL) was applied at 0.25 mM, and product formation was monitored spectrophotometrically at 412 nm using 5,5′-dithio-bis-2-nitrobenzoic acid (DTNB) as described [Khersonsky, O. and D. S. Tawfik, Chembiochem, 2006. 7(1): p. 49-53].
# Stimulation of the enzymatic activity was examined by incubating rePON1 isozymes with a range of rHDL concentrations (at the HDL/PON ratio of 0.5-50), and measuring the catalytic activity with various substrates as detailed hereinabove. FIGS. 3A-B illustrate the enzymatic activity of the rePON1 isozymes with δ-nonanoic lactone as substrate (FIG. 3A) and thiobutyl butiryl lactone (TBBL) as substrate (FIG. 3B). FIGS. 4A-D illustrate the enzymatic activity of the rePON1 isozymes with γ-dodecanoic lactone as substrate (FIG. 4A), δ-valerolactone as substrate (FIG. 4B), phenyl acetate as substrate (FIG. 4C) and paraoxon as substrate (FIG. 4D). Data were fitted to the Langmuir saturation curve to give the activation factor Vmax (in percent relative to the delipidated PON1) and the apparent affinity Kapp.
# [5] = substrate γ-dodecanoic lactone 1 mM
# [6] = substrate δ-nonanoic lactone 1 mM
Molecule,Kd (apoA-I rHDL [1]) [nM],koff (apoA-I rHDL [1]),kon (apoA-I rHDL [1]),A2 (amplitude) (%) (apoA-I rHDL [2]),"k1^inactiv (first, fast phase) [3] [h⁻¹]","k2^inactiv (second, slow phase) [3] [h⁻¹]",reduction of Vmax compared to wt rePON1-192K (apoA-I rHDL [4]),Kapp (apparent affinity for HDL stimulation) (apoA-I rHDL [4]; substrate TBBL 0.25 mM) [µM],Vmax (%) activation factor (apoA-I rHDL [4]; substrate TBBL 0.25 mM) [%],Vmax (%) activation factor (apoA-I rHDL [4]; substrate paraoxon 1 mM) [%],Kapp (apparent affinity for HDL stimulation) (apoA-I rHDL [4]; substrate phenyl acetate 1 mM) [µM],Vmax (%) activation factor (apoA-I rHDL [4]; substrate phenyl acetate 1 mM) [%],Kapp (apparent affinity for HDL stimulation) (apoA-I rHDL [4]; [5]) [µM],Vmax (%) activation factor (apoA-I rHDL [4]; [5]) [%],Kapp (apparent affinity for HDL stimulation) (apoA-I rHDL [4]; [6]) [µM],Vmax (%) activation factor (apoA-I rHDL [4]; [6]) [%],Kapp (apparent affinity for HDL stimulation) (apoA-I rHDL [4]; substrate δ-valerolactone 1 mM) [µM],Vmax (%) activation factor (apoA-I rHDL [4]; substrate δ-valerolactone 1 mM) [%],"A2 (%) (amplitude of second, slow inactivation phase = HDL-bound fraction) (apoA-I rHDL [2])","k1^inactiv (first, fast phase) (apoA-I rHDL [2]) [h⁻¹]",other results
B1,100,(2.0 ± 0.2) × 10^−2 s^−1,(2.0 ± 0.3) × 10^5 s^−1 M^−1,100,–,–,–,–,–,–,–,–,–,–,–,–,–,–,–,–,fold higher HDL binding affinity than the Q isozyme (apoA-I rHDL [1]; relative to the Q isozyme): 3 fold
B2,110,(2.9 ± 0.2) × 10^−2 s^−1,(2.6 ± 0.3) × 10^5 s^−1 M^−1,90,–,–,–,–,–,–,–,–,–,–,–,–,–,–,–,–,–
B3,300,(4.2 ± 0.2) × 10^−2 s^−1,(1.4 ± 0.5) × 10^5 s^−1 M^−1,70,–,–,–,–,–,–,–,–,–,–,–,–,–,–,–,–,–
B4,–,–,–,–,5.2,0.3,50-80%,0.5 ± 0.1,340 ± 4,128 ± 1,0.8 ± 0.1,165 ± 1,0.6 ± 0.2,382 ± 20,0.6 ± 0.1,778 ± 12,1.1 ± 0.1,481 ± 7,70,1.1,"k2^inactiv (second, slow phase) (apoA-I rHDL [2]): 0.01 h⁻¹"
B5,–,–,–,–,5.5,0.2,10-30%,0.4 ± 0.1,579 ± 6,200 ± 1,0.8 ± 0.1,336 ± 4,0.9 ± 0.1,1258 ± 21,1.5 ± 0.1,1351 ± 20,1.1 ± 0.1,1403 ± 13,90,0.9,"k2^inactiv (second, slow phase) (apoA-I rHDL [2]): 0.01 h⁻¹"
